Measurements from patent US20220089647A1 (FUJIFILM, published 2022).
Starred links: 1 amine or outer side, 2 acyl side, 3 side chain; linkers in the order of their positions; H or OH if unused. Positions of bridges follow the written chain, without caps; N, C: chain ends. Non-standard residues stand in square brackets, D forms with d. Primed or numbered codes have the meaning given here. No end group written: not given here. Dab(acetyl)″ = 2-amino-4-(acetylamino)butanoic acid, acetyl CH3 carbon bonded to the S of Hcy (S-CH2-C(=O)-NH-), O=C(C[*:3])NCC[C@H](N[*:1])C(=O)[*:2]; Dab(acetyl) = 2-amino-4-acetylamino-butanoic acid residue (N-γ-acetyl-diaminobutyric acid), CC(=O)NCC[C@H](N[*:1])C(=O)[*:2]; Dap(acetyl) = 2-amino-3-acetylamino-propanoic acid residue, CC(=O)NC[C@H](N[*:1])C(=O)[*:2]; COCH2 = acetyl group that carries the bridge; hCys = N[C@@H](CCS)C(=O)O; Dab = NCC[C@H](N)C(=O)O

B1: Cyclic peptide 49 (peptide)
peptide: KKK[hCys]EPRGDNYR[Dab(acetyl)″]-NH2
modifications: thioether 4-13; N-terminus assumed
SMILES: N=C(N)NCCC[C@@H]1NC(=O)[C@H](Cc2ccc(O)cc2)NC(=O)[C@H](CC(N)=O)NC(=O)[C@H](CC(=O)O)NC(=O)CNC(=O)[C@H](CCCNC(=N)N)NC(=O)[C@@H]2CCCN2C(=O)[C@H](CCC(=O)O)NC(=O)[C@@H](NC(=O)[C@H](CCCCN)NC(=O)[C@H](CCCCN)NC(=O)[C@@H](N)CCCCN)CCSCC(=O)NCC[C@@H](C(N)=O)NC1=O
B2: Cyclic peptide 129 (peptide)
peptide: KKKGXIPRGDTFRXA
modifications: not fully specified; KKKG-(Pen)-IPRGDTFR(Dab(acetyl))A; thioether bond Pen-Dab(acetyl)
B3: Cyclic peptide 135 (peptide)
peptide: KKKGXIPRGDTFRXA
modifications: not fully specified; KKKG(Lys(acetyl))IPRGDTFR-(Pen)-A; thioether bond Lys(acetyl)-Pen
B4: Cyclic peptide 137 (peptide)
peptide: KKKAXIPRGDSFAXA
modifications: not fully specified; KKKA(Dab(acetyl))IPRGDSFA-(Pen)-A; thioether bond Dab(acetyl)-Pen
B5: Cyclic peptide 124 (peptide)
peptide: KKKAXIPRGDSFAXA
modifications: not fully specified; KKKA(Dab(acetyl))IPRGDSFA-(Hcy)-A; thioether bond Dab(acetyl)-Hcy
B6: Cyclic peptide 81 (peptide)
peptide: KKKAXIPRGDTYRXA
modifications: not fully specified; KKKA-(Hcy)-IPRGDTYR(Dab(acetyl))A; thioether bond Hcy-Dab(acetyl)
B7: Cyclic peptide 80 (peptide)
peptide: KKKAXIPRGDTPRXA
modifications: not fully specified; KKKA-(Hcy)-IPRGDTPR(Dab(acetyl))A; thioether bond Hcy-Dab(acetyl)
B8: Cyclic peptide 76 (peptide)
peptide: KKKAXITRGDTFRXA
modifications: not fully specified; KKKA-(Hcy)-ITRGDTFR(Dab(acetyl))A; thioether bond Hcy-Dab(acetyl)
B9: Cyclic peptide 79 (peptide)
peptide: KKKAXIPRGDAFRXA
modifications: not fully specified; KKKA-(Hcy)-IPRGDAFR(Dab(acetyl))A; thioether bond Hcy-Dab(acetyl)
B10: Cyclic peptide 72 (peptide)
peptide: KKKGXIPRGDSFRXA
modifications: not fully specified; KKKG-(Hcy)-IPRGDSFR(Dab(acetyl))A; thioether bond Hcy-Dab(acetyl)
B11: Cyclic peptide 82 (peptide)
peptide: KKKAXIPRGDTFTXA
modifications: not fully specified; KKKA-(Hcy)-IPRGDTFT(Dab(acetyl))A; thioether bond Hcy-Dab(acetyl)
B12: Cyclic peptide 12 (peptide)
peptide: KKKXIPRGDNFRX
modifications: not fully specified; KKK(Dap(acetyl))IPRGDNFR-(Hcy); thioether bond Dap(acetyl)-Hcy
B13: Cyclic peptide 131 (peptide)
peptide: KKKGXIPRGDTFRXA
modifications: not fully specified; KKKG-(Pen)-IPRGDTFR(Lys(acetyl))A; thioether bond Pen-Lys(acetyl)
B14: Cyclic peptide 138 (peptide)
peptide: KKKGXIPRGDTFRCA
modifications: not fully specified; KKKG(Dab(acetyl))IPRGDTFR(C)A; thioether bond Dab(acetyl)-Cys
B15: Cyclic peptide 7 (peptide)
peptide: KKKGXIPRGDNFRX
modifications: not fully specified; KKKG-(Hcy)-IPRGDNFR(Dab(acetyl)); thioether bond Hcy-Dab(acetyl)
B16: Cyclic peptide 133 (peptide)
peptide: KKKGXIPRGDTFRXA
modifications: not fully specified; KKKG(Dab(acetyl))IPRGDTFR-(Pen)-A; thioether bond Dab(acetyl)-Pen
B17: Cyclic peptide 68 (peptide)
peptide: KKKGXXPRGDTFRXA
modifications: not fully specified; KKKG-(Hcy)-(HmY)-PRGDTFR(Dab(acetyl))A; HmY = homotyrosine; thioether bond Hcy-Dab(acetyl)

Columns and labels:
human integrin αvβ5 [1] = target: T1, human integrin αvβ5 (human, UniProt P06756 31-992; P18084 24-719, limits assumed); assay: SPR, Biacore 3000, peptide immobilised; B = KD more than 50 nM and 100 nM or less
T1 construct: Heterodimer flowed as analyte at 30, 100, 300 and 1,000 nM in HEPES buffer with 5 mM MgCl2
Experimental: (§1) However, only for the cyclic peptides 125, 126, and 127, in which the number of lysine residues having an amino group as the immobilizing functional group was zero, the amount of the sample solution to be supplied to the sensor chip was set to 500 μL instead of 20 μL. Further, 70 μL of the mixed aqueous solution of 0.2 M EDC and 0.04 M NHS was added to another flow channel of the same sensor chip without immobilizing the sample, and then blocking treatment and washing treatment were carried out. Hereinafter, the obtained immobilization-treated sensor chip is referred to as an “immobilization-treated sensor chip A”.
(§2) After adding human integrin αvβ5 for 10 minutes at 25° C., which was diluted to 30 nM using a HEPES buffer solution to which magnesium chloride was added to 5 mM, in each flow channel of the immobilization-treated sensor chip A prepared in (1) above, the same HEPES buffer solution (containing 5 mM magnesium chloride) was allowed to flow as a running buffer for 30 minutes, and measurement was carried out with Biacore 3000. Then, a regeneration treatment of removing human integrin αvβ5 was carried out by allowing a 0.5 M EDTA aqueous solution to flow through each flow channel for 10 minutes. Further, the above-described measurement process consisting of adding integrin for 10 minutes, allowing a running buffer to flow for 30 minutes, carrying out measurement with Biacore 3000, and carrying out regeneration treatment with 0.5 M EDTA aqueous solution was carried out in the same manner for 100 nM human integrin αvβ5, 300 nM human integrin αvβ5, and 1,000 nM human integrin αvβ5. Dissociation constant between the cyclic peptide and human integrin αvβ5 was calculated from the difference between the value measured by Biacore 3000 in the flow channel immobilized with the cyclic peptide and the value measured by Biacore 3000 in the flow channel unimmobilized with the cyclic peptide, in a case where each concentration of human integrin αvβ5 was allowed to flow, and the integrin binding property was evaluated according to the following evaluation standards. It is preferable that the evaluation result satisfies the evaluation standard A, B, or C.

human integrin αvβ5 [2] = target: T1, human integrin αvβ5; assay: SPR, Biacore 3000, peptide immobilised; A = KD 50 nM or less
Experimental: as §1, §2

T1 sequence (P06756 31-992 limits assumed, chain 1 of 2): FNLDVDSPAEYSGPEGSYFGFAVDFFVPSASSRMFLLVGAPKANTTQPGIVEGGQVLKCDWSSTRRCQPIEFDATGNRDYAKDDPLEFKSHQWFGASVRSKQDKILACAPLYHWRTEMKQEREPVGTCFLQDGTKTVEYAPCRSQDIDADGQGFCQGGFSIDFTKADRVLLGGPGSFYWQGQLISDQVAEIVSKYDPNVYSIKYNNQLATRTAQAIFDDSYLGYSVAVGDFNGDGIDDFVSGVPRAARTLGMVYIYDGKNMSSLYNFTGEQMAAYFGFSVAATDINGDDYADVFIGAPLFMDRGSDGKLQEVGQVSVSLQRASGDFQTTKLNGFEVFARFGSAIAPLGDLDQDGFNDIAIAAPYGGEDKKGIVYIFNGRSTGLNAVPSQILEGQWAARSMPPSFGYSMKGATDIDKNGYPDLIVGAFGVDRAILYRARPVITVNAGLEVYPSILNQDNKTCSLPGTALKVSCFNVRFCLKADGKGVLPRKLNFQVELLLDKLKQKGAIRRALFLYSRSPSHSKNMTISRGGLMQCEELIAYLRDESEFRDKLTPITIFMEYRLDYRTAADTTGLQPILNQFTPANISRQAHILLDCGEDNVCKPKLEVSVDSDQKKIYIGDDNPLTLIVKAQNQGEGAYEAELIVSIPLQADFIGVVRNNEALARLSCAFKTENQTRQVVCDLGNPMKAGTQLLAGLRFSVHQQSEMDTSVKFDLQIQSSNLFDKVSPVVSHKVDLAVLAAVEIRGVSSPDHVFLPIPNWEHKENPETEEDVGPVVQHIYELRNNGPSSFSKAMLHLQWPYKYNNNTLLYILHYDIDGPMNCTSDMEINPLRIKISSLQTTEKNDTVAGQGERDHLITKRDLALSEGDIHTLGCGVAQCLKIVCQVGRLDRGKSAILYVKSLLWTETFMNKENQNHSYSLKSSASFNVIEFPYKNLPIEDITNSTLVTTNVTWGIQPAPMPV
T1 sequence (P18084 24-719 limits assumed, chain 2 of 2): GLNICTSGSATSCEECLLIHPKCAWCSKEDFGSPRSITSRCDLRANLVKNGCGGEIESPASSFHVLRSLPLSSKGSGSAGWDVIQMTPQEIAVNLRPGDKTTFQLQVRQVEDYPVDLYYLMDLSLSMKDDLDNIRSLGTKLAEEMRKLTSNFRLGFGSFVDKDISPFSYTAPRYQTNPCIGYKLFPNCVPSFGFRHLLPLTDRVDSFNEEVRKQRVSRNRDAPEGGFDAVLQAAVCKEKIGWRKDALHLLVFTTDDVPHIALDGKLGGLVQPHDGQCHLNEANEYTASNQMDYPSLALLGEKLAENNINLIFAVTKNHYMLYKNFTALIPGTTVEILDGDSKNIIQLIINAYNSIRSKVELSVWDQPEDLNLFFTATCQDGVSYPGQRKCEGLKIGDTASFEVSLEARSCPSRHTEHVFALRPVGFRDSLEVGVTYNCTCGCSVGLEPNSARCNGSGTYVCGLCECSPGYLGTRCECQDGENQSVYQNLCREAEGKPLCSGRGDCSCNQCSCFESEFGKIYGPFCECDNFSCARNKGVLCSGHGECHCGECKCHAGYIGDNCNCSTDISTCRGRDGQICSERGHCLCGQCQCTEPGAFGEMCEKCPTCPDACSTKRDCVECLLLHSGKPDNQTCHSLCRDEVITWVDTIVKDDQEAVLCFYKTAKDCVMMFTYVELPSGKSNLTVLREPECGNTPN

Binder	dissociation constant (KD) (human integrin αvβ5 [1]) [nM]	dissociation constant (human integrin αvβ5 [1]) [nM]	other results
B1	50 to 100	–	–
KKK[hCys]IPRGDVF[Dab(acetyl)″] (thioether 4-12) [Cyclic peptide 65]	–	50 to 100	–
KKK[hCys]EPRGDNYR[Dab(acetyl)″] (thioether 4-13) [Cyclic peptide 44]	50 to 100	–	–
B2	–	50 to 100	–
KKK[hCys]AIPRGDNFR[Dab(acetyl)]A (thioether 4-14) [Cyclic peptide 15]	50 to 100	–	–
KKK[Dap(acetyl)]EPRGDNYR[hCys] (thioether 4-13) [Cyclic peptide 46]	50 to 100	–	–
KKK[hCys]DPRGDNFR[Dab](COCH2)A (thioether 4-13) [Cyclic peptide 22]	50 to 100	–	–
KKK[hCys]IPRGDNYR[Dab](COCH2)A (thioether 4-13) [Cyclic peptide 26]	50 to 100	–	–
KKK[hCys]IPRGDSFR[Dab](COCH2)A (thioether 4-13) [Cyclic peptide 25]	50 to 100	–	–
KKKG[hCys]AIPRGDNFRA[Dab](COCH2)A (thioether 5-16) [Cyclic peptide 20]	50 to 100	–	–
B3	–	50 to 100	–
KKKA[hCys]EPRGDNYR[Dab(acetyl)″]D (thioether 5-14) [Cyclic peptide 42]	50 to 100	–	–
KKKA[hCys]EPRGDNYR[Dab(acetyl)″]E (thioether 5-14) [Cyclic peptide 43]	50 to 100	–	–
KKKA[hCys]EPRGDNYR[Dab(acetyl)″]A (thioether 5-14) [Cyclic peptide 41]	50 to 100	–	–
KKKA[hCys]VPRGDNYR[Dab](COCH2)D (thioether 5-14) [Cyclic peptide 29]	50 to 100	–	–
KKKA[hCys]EPRGDNYR[Dab(acetyl)″]G (thioether 5-14) [Cyclic peptide 40]	50 to 100	–	–
KKKG[hCys]EPRGDNYR[Dab](COCH2)D (thioether 5-14) [Cyclic peptide 37]	50 to 100	–	–
KKKD[hCys]EPRGDNYR[Dab](COCH2)D (thioether 5-14) [Cyclic peptide 38]	50 to 100	–	–
KKKA[hCys]EPRGDNYE[Dab](COCH2)D (thioether 5-14) [Cyclic peptide 36]	50 to 100	–	–
KKK[hCys]IPRGDNF[Dab(acetyl)″]A (thioether 4-12) [Cyclic peptide 10]	50 to 100	–	–
KKKA[hCys]VTRGDVFT[Dab(acetyl)″]A (thioether 5-14) [Cyclic peptide 113]	–	50 to 100	–
KKK[hCys]AAIPRGDNFR[Dab](COCH2)A (thioether 4-15) [Cyclic peptide 18]	50 to 100	–	–

Binder	dissociation constant (KD) (human integrin αvβ5 [1]) [nM]	dissociation constant (human integrin αvβ5 [1]) [nM]	other results
KKKA[Dap(acetyl)]EPRGDNYR[hCys]-NH2 (thioether 5-14) [Cyclic peptide 53]	50 to 100	–	–
KKK[Dap(acetyl)]EPRGDNYR[hCys]-NH2 (thioether 4-13) [Cyclic peptide 52]	50 to 100	–	–
KKK[hCys]AIPRGDNFRA[Dab](COCH2)A (thioether 4-15) [Cyclic peptide 17]	50 to 100	–	–
KKKG[hCys]LPRGDSFR[Dab](COCH2)A (thioether 5-14) [Cyclic peptide 28]	50 to 100	–	–
B4	–	50 to 100	–
B5	–	50 to 100	–
B6	–	50 to 100	–
B7	–	50 to 100	–
B8	–	50 to 100	–
B9	–	50 to 100	–
B10	–	50 to 100	–
B11	–	50 to 100	–
B12	50 to 100	–	–
KKKA[Dap(acetyl)]EPRGDNYR[hCys] (thioether 5-14) [Cyclic peptide 47]	50 to 100	–	–
KKK[hCys]IPRGDNFRA[Dab](COCH2)A (thioether 4-14) [Cyclic peptide 16]	50 to 100	–	–
B13	–	50 to 100	–
B14	–	50 to 100	–
B15	–	–	dissociation constant (KD) (human integrin αvβ5 [2]): ≤ 50 nM
KKKG[hCys]IPRGDTFR[Dab(acetyl)″] (thioether 5-14) [Cyclic peptide 59]	–	–	dissociation constant (KD) (human integrin αvβ5 [2]): ≤ 50 nM
B16	–	50 to 100	–
KKKA[hCys]EPRGDNYR[Dab(acetyl)″] (thioether 5-14) [Cyclic peptide 45]	50 to 100	–	–
B17	–	–	dissociation constant (human integrin αvβ5 [2]): ≤ 50 nM
